Read-outs that look alike come from different tables or passages of the source. Bridges are numbered along the chain shown (N, C = ends). Where no end group is shown, it is not given here.
What was measured:
[1] = molecular target: T1, soluble TPO-R (UniProt P40238 26-491); test: competition ELISA vs MBP-TPO156
T1 construct: extracellular domain; Immobilized through anti-HPAP antibody Ab179; also called thrombopoietin receptor; c-mpl

[2] = molecular target: T2, full length human TPO-R (human, UniProt P40238 26-635); test: cell-based or functional assay
T2 sequence (looked up): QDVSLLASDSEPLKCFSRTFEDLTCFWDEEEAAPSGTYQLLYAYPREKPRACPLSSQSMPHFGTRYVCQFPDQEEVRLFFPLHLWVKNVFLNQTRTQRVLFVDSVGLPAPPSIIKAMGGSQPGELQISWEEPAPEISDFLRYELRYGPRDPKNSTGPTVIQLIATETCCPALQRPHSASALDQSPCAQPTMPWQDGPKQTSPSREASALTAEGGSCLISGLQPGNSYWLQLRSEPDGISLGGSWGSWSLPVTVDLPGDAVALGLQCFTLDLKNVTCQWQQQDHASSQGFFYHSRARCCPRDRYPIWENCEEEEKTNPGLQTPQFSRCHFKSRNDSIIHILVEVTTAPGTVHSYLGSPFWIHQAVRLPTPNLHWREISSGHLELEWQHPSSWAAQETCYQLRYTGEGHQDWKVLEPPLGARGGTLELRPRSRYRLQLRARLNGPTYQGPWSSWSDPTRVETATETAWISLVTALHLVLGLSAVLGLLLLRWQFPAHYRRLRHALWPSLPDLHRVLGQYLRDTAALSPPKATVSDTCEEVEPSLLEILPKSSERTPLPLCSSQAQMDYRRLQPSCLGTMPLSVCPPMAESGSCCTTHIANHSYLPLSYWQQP

[3] = molecular target: T2, full length human TPO-R; test: cell-based or functional assay; remark: listed apart in the source
[4] = molecular target: T1, soluble TPO-R; test: competition ELISA vs MBP-TPO156; remark: listed apart in the source
Method: (§1) The amount of alkaline phosphatase in each well was then determined using standard methods.
(§2) In this example cyclized compounds were subjected to three assays. First, $IC50$ valves were obtained as described above.

[5] = molecular target: T1, soluble TPO-R; test: competition ELISA vs MBP-TPO156; remark: listed apart in the source
Method: as §1, §2

[6] = molecular target: T2, full length human TPO-R; test: cell-based or functional assay; remark: listed apart in the source
[7] = molecular target: T2, full length human TPO-R; test: cell-based or functional assay; remark: listed apart in the source
[8] = molecular target: T3, soluble TPO-R (UniProt P40238 26-491); test: competition ELISA vs MBP-TPO156
[9] = molecular target: T3, soluble TPO-R; test: equilibrium binding ELISA, MBP-TPO or lacI-peptide tracer

Binder: H-CADGPTLREWISFC-NH2 (disulfide 1-14 (inferred), also called [drawing CHEM-US-00034]) [cyclized monomer (SEQ ID NO:12)]
- IC50 [1]: ≤ 500 nM
- EC50 cell proliferation [2]: ≤ 500 nM
- EC50 microphysiometer [2]: ≤ 500 nM

Binder: ADGPTLREWISFC (also: further groups not given here, structure printed only as a drawing) [[drawing CHEM-US-00004] (SEQ ID NO:173)]
- EC50 cell proliferation [3]: ≤ 500 nM
- EC50 microphysiometer [3]: ≤ 500 nM
- IC50 [4]: ≤ 500 nM

Binder: CADGPTLREWISAC (also: cyclized, mode not given here) [SEQ ID NO:12 cyclized, F - A]
- IC50 [5]: ≤ 500 nM
- EC50 cell proliferation [6]: ~200 µM
- EC50 microphysiometer [6]: ≤ 200 µM

Binder: ADGPTLREWISFCG (also: further groups not given here) [SEQ ID NO:173 compound, C-term, Gly addition]
- EC50 cell proliferation [7]: ≤ 500 nM
- IC50 [8]: ≤ 500 nM

Binder: GGCTLREWLHGGFCGG (free synthetic peptide) [G G C T L R E W L H G G F C G G]
- IC50 [9]: ≤ 500 nM

Reference: patent publication US7091311 (GlaxoSmithKline, dated 2006)
